Results: paper PMC314469, “Protein Interaction Networks by Proteome Peptide Scanning” (PLoS Biology, 2004)

T1: Abp1 SH3 (ABP1_YEAST), P15891
T1 chain: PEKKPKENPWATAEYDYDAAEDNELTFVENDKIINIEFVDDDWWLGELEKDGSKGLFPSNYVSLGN


Target: T1, Abp1 SH3 (ABP1_YEAST), P15891
Test: SPOT array

Binder	normalised SPOT signal, Boehringer light units (BLU); mean over the file's lines of this peptide
VPKSTHDPSLAKP [YER167W 235-247]	82.5
VLNTRESPDSLKP [YGR109W-B 421-433]	103
VPLQIVSPQSNKP [YDL140C 507-519]	20.8
VNPIGITPLGPKP [YMR251W 349-361]	62.5
VNNEIHYYYPPVKP [YDR321W 235-248]	116
VLVTEKFPEVMKP [YMR208W 259-271]	87.4
VSRFYQIPGTHRP [YBR235W 2-14]	326
VSHYHYGVKHPMKP [YGL194C 36-49]	39.9
VMIIFTIPETYKP [YHR048W 242-254]	96
VRDAYEKTLPPKRP [YKL032C 424-437]	416
VPPTQSLPNGKKP [YER035W 35-47]	79.3
VLPVKIQPPLLRP [YPR175W 10-22]	149
VSFDLKTPLRAKP [YMR092C 479-491]	461
VRRKPHSPNKKKP [YDR223W 11-23]	98

More lines, now with the values ahead:

normalised SPOT signal, Boehringer light units (BLU); mean over the file's lines of this peptide	Binder
214	VSSQPSLPRTLKP [YPL019C 812-824]
40.6	VNYVDYYPLPDKP [YGL137W 187-199]
247	VQMRMDPNQQPEKP [YDR258C 83-96]
122	VLRLTDIEKTPQRP [YFL001W 315-328]
51.1	VLDVSHSKYIPLKP [YGL017W 311-324]
5240	VSLHLVRKVAPTKP [YHR070W 474-487]
103	VNIEDITEPKPDKP [YDR363W 93-106]
107	VSHGDLNLINPMRP [YOL042W 270-283]
69.6	VQVQTTTSILPLKP [YGR188C 415-428]
